Assay results published in patent US20120321641A1 (TORAY INDUSTRIES, published 2012).

T1: human CAPRIN-1 protein on human cancer cells and in human cancer tissues (human, UniProt Q14444 2-709)
T1 construct: whole, on cells; Endogenous protein of the cell lines and tissue arrays; also called CAPRIN-1 protein expressed on the cell membrane surfaces of human cancer cell lines
T1 sequence (looked up): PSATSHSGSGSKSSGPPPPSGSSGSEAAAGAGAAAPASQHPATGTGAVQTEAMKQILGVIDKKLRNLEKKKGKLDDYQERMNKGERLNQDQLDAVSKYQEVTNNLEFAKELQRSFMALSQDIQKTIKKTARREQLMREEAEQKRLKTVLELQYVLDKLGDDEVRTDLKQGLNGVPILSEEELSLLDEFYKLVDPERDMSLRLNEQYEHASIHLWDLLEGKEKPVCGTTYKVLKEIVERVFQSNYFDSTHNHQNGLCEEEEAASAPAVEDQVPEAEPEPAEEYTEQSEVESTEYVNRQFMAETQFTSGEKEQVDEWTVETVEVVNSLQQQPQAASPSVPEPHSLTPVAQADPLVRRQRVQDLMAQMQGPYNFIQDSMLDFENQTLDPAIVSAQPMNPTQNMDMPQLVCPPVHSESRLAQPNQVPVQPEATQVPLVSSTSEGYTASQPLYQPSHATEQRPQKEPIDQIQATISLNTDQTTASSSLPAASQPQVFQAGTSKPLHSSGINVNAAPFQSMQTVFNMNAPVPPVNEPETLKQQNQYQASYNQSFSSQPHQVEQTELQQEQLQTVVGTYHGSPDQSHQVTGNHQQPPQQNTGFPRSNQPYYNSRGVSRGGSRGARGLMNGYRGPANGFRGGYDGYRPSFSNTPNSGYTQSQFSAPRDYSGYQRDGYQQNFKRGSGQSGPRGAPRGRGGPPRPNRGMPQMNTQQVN

T2: recombinant human CAPRIN-1 protein having the amino acid sequence represented by SEQ ID NO: 2 (human, UniProt Q14444 2-709)
T2 construct: The His-tag was cleaved off with enterokinase; also called antigen protein (human CAPRIN-1)
T2 sequence: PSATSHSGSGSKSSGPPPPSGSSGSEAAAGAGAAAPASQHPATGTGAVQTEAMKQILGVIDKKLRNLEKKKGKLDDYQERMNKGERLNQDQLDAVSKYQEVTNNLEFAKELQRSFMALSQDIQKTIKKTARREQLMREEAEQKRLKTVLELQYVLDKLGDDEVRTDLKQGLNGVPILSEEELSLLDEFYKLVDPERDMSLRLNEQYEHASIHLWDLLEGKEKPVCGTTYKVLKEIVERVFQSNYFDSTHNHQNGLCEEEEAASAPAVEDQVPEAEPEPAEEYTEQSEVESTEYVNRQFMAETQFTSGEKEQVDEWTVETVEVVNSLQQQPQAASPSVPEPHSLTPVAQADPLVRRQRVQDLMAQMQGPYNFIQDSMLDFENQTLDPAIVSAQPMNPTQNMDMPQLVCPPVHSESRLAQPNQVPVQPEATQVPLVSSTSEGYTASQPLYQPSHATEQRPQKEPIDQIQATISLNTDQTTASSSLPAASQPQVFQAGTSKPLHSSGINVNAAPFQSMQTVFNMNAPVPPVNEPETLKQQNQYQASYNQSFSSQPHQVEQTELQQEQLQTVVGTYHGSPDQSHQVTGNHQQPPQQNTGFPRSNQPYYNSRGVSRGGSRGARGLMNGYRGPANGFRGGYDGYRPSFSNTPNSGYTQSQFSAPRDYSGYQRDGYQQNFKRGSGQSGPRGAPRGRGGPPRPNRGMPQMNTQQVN

B1: monoclonal antibody #1 prepared in Example 4 (antibody, V domains shown)
VH: AVTLDESGGGLQTPGGGLSLVCKASGFTFSSFDMGWVRQAPGKGLEFVAQINDAGSRTWYATAVKGRATISRDNGQTTVRLQLNNLRAEDTGTYYCTRGSGYVGAGAIDAWGHGTEVIVS
VL: AALTQPSSVSANPGETVKITCSGGSGYYGWYQQQKSPGSAPVTVIYQNDKRPSDIPSRFSGSGSGSTNTLTITGVQAEDEAVYFCGRYDSTDSGIFGAGTTLTVL
notes: also called anti-CAPRIN-1 monoclonal antibody
B2: chicken monoclonal antibody #1 (antibody, V domains shown)
VH: AVTLDESGGGLQTPGGGLSLVCKASGFTFSSFDMGWVRQAPGKGLEFVAQINDAGSRTWYATAVKGRATISRDNGQTTVRLQLNNLRAEDTGTYYCTRGSGYVGAGAIDAWGHGTEVIVS
VL: AALTQPSSVSANPGETVKITCSGGSGYYGWYQQQKSPGSAPVTVIYQNDKRPSDIPSRFSGSGSGSTNTLTITGVQAEDEAVYFCGRYDSTDSGIFGAGTTLTVL
notes: Chicken hybridoma antibody tested as culture supernatant and detected with anti-chicken IgY/IgG secondary antibodies; the chicken constant regions are not; also called anti-CAPRIN-1 monoclonal antibody #1

Key:
[1] = molecular target: T1, human CAPRIN-1 protein on human cancer …; assay: immunohistochemical staining of paraffin-embedded human cancer tissue arrays
Experimental: After 3 hours of treatment of the human breast cancer tissue array at 60° C., the array was placed in a staining bottle filled with xylene, followed by xylene replacement being repeated three times every 5 minutes. Next, a similar procedure was performed with ethanol and PBS-T instead of xylene. The human breast cancer tissue array was placed in a staining bottle filled with 10 mM citrate buffer (pH 6.0) containing 0.05% Tween20. After 5 minutes of treatment at 125° C., the array was left to stand at room temperature for 40 minutes or more. Excess water around the sections was removed with Kimwipes, the sections were circled with a DAKOPEN, and Peroxidase Block (DAKO) was added dropwise in appropriate amounts. After left to stand at room temperature for 5 minutes, the array was placed in a staining bottle filled with PBS-T, followed by PBS-T replacement being repeated three times every 5 minutes. As a blocking solution, a PBS-T solution containing 10% FBS was placed on the array, and then the array was left to stand in a moist chamber at room temperature for 1 hour. Next, a solution of the monoclonal antibody #1 of 10 μg/ml adjusted with a PBS-T solution containing 5% FBS, which reacts with cancer cell surfaces and had been prepared in Example 4, was placed on, and the array was left to stand overnight in a moist chamber at 4° C. […]

[2] = molecular target: T2, recombinant human CAPRIN-1 protein …; assay: ELISA; CAPRIN-1 protein coated at 1 ug/ml, hybridoma culture supernatant, HRP anti-chicken IgY
Experimental: The thus selected hybridomas were added to a 96-well plate at 0.5 cells per well and then cultured. After 1 week, hybridomas that had formed single colonies in wells were observed. These cells in the wells were further cultured, and then hybridomas were selected using as a marker the binding affinity of antibodies produced by the cloned hybridomas to the CAPRIN-1 protein. The CAPRIN-1 protein solution (1 μg/ml) prepared in Example 2 was added to a 96-well plate at 100 μl per well, and then left to stand at 4° C. for 18 hours. Each well was washed with PBS-T three times, 400 μl of a 0.5% BSA solution was added per well, and then the resultant was left to stand at room temperature for 3 hours. The solution was removed, and then the wells were washed three times with 400 μl of PBS-T per well. 100 μl of each culture supernatant of the above-obtained hybridomas was added per well, and then the plate was left to stand at room temperature for 2 hours. After washing each well three times with PBS-T, 100 μl of an HRP-labeled anti-chicken IgY antibody (SIGMA) diluted 5000-fold with PBS was added per well and then left to stand at room temperature for 1 hour. […] After color development, 100 μl of 1N sulfuric acid was added per well to stop the reaction and then absorbances at 450 nm and 595 nm were measured using an absorption spectrometer. […]

[3] = molecular target: T1, human CAPRIN-1 protein on human cancer …; assay: flow cytometry on MDA-MB-231V human breast cancer cells, hybridoma culture supernatant, FITC anti-chicken IgG
Experimental: Next, of those monoclonal antibodies, antibodies reactive with the cell surfaces of breast cancer cells expressing CAPRIN-1 were selected. Specifically, 5×10⁵ cells of the human breast cancer cell line MDA-MB-231V were subjected to centrifugation in a 1.5-ml microcentrifuge tube, and 100 μl of the culture supernatant of each of the above hybridomas was added to the tube, and then the tube was left to stand on ice for 1 hour. After washing with PBS, an FITC-labeled goat anti-chicken IgG (H+L) antibody (SouthernBiotech) diluted 30-fold with PBS containing 0.1% FBS was added, and then the resultant was left to stand on ice for 1 hour. After washing with PBS, fluorescence intensity was measured using a FACS caliber (Becton, Dickinson and Company). Meanwhile, procedures similar to the above were performed for medium for culturing hybridomas, so that a control sample was obtained.

Row | Binder | binding result [1] | binding result [2] | binding result [3]
1 | B1 | binds | – | –
2 | B2 | – | binds | binds
